Results: patent US20030103978A1 (Amgen, published 2003)
Positions count from the first letter of the chain named. Blank lines part the entries; values can stand above or below the binder they belong to.

Experiments:
[1] = target: T1, human OPGbp[143-317] (human, UniProt O14788 143-317); experiment: cell-based or functional assay
T1 sequence (looked up): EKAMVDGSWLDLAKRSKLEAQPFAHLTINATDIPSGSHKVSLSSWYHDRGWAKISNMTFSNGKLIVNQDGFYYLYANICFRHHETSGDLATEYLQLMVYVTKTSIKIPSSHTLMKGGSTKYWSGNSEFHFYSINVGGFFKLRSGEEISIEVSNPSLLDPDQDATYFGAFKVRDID

[2] = target: T2, FLAG-murine OPGbp[158-316]/DE (murine, UniProt O35235 158-316); experiment: EIA: plate coated with FLAG-murine OPGbp[158-316]/DE at 3 ug/ml, AT antibody in twofold steps 1.953-2000 ng/ml, goat anti-human IgG (Fc) conjugate, ABTS, absorbance at 405 nm
T2 construct: Produced in E. coli; also called FLAG-mouse OPGbp/DE; DE variant
T2 sequence: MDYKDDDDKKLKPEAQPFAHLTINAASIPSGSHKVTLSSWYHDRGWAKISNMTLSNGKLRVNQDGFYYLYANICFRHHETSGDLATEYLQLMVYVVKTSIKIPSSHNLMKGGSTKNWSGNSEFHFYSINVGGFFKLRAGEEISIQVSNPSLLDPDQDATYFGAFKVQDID
Description: (§1) After overnight incubation, the protein solutions were removed from the plate and 200 μl of 5% Chicken Serum (Gibco/BRL Cat# 16110-082) in PBST (PBS plus 0.05% Tween 20) was added to each well of the plate and plates were incubated at room temperature (RT) for 90 min with agitation. After incubation and blocking, plates were washed 4 times with 1×K-P wash solution in dH₂O (Cat#50-63-00, Kirkegaard & Perry Laboratories) and dried. […] Plates were incubated for three hours at room temperature with agitation, washed four times with 1×K-P wash solution and dried. Goat anti-human IgG (Fc) (Jackson ImmunoResearch, Cat# 109-036-098) was diluted 1:5000 in 5% Chicken Serum in PBST and 100 μl was added to each well. […] 100 μl of undiluted ABTS substrate (Kirkegaard & Perry; Cat# 50-66-00) was added to each well and the dish was incubated at room temperature until sufficient blue-green color developed. Color development was stopped by addition of 100 μl 1% SDS. Quantitation of color development was performed using a microtiter plate reader with detection at 405 nm.

[3] = target: T1, human OPGbp[143-317]; experiment: EIA: plate coated with human OPGbp[143-317] at 3 ug/ml, AT antibody in twofold steps 1.953-2000 ng/ml, goat anti-human IgG (Fc) conjugate, ABTS, absorbance at 405 nm
Description: as §1

[4] = target: T1, human OPGbp[143-317]; experiment: SPR (BIAcore), immobilized OPGbp[143-317]

B1: Fab “Y” (Fab, V domains shown)
VH: EVQLVQSGAEVRKPGASVKVSCKASGYDFSNYAIHWVRQAPGQRLEWMGWINAGNGNTKFSQKFQGRITVTRDTAASTAYMELRSLRSEDTAVYYCARDSSNMVRGIIIAYYFDYWGQGTLVTVSS
VL: EIVLTQSPATLSFSPGERATLSCRASQSVGSYLAWYQQRPGQAPRPLIYDATNRATGIPTRFSGSGSGTDFTLTISSLEPEDFATYYCQHRRTFGRGTKLEIKR
murine bone marrow assay, TRAP in solution (pNPP), IC50 [1]: 212 nM

B3: “AT” Fab S96A (Fab, V domains shown)
VH: B1 VH with E1Q, S100A
VL: EIVMTQSPSSLSASVGDRVTITCRASQSISRYLNWYQLKPGKAPRLLIYGASSLQSGVPSRFSGSGSGAEFTLTISSLQPEDIATYYCQHTRAFGQGTKVEIKR
modifications: The Fab carried a 6xHis tag. Its chain and terminus are not stated, so it is left out.
notes: His-tagged Fab
koff [4]: 0.0072 s⁻¹

B4: “AT” Fab D110A (Fab, V domains shown)
VH: B1 VH with E1Q, D114A
VL: B3 VL
notes: His-tagged Fab
koff [4]: 0.127 s⁻¹

B6: “AT” Fab D95A (Fab, V domains shown)
VH: B1 VH with E1Q, D99A
VL: B3 VL
modifications: The Fab carried a 6xHis tag. Its chain and terminus are not stated, so it is left out.
notes: His-tagged Fab
binding result [4]: no binding

B8: “AT” Fab N98A (Fab, V domains shown)
VH: B1 VH with E1Q, N102A
VL: B3 VL
modifications: The Fab carried a 6xHis tag. Its chain and terminus are not stated, so it is left out.
notes: His-tagged Fab
koff [4]: 0.012 s⁻¹

Second part, the binder after the results:

EC50 (read off the curve) [2]: ~0.02 µg/mL
EC50 (read off the curve) [3]: ~0.01 µg/mL
B2: “AT” antibody (antibody, human IgG1, V domains shown)
VH: B1 VH with E1Q
VL: B3 VL
notes: Full-length antibody from CHO cells: Fab “AT” heavy chain variable region joined to human IgG1 CH1, hinge, CH2 and CH3; light chain of Fab “AT” (kappa); the mature antibodies are identical; also called “AT” Ab; “AT” Nb

koff [4]: 0.414 s⁻¹
B5: “AT” Fab Y111A (Fab, V domains shown)
VH: B1 VH with E1Q, Y115A
VL: B3 VL
notes: His-tagged Fab

koff [4]: 0.0062 s⁻¹
B7: “AT” Fab S97A (Fab, V domains shown)
VH: B1 VH with E1Q, S101A
VL: B3 VL
modifications: The Fab carried a 6xHis tag. Its chain and terminus are not stated, so it is left out.
notes: His-tagged Fab
